± gives the uncertainty stated by the source.
assay: abundance fitness (aPCA) (normalised: wild type 0, dead -1); higher = more abundant; growth selection in yeast, the domain comes from the species named; settings: Homo sapiens

**Q.** With “Lipoamide acyltransferase component of branched-chain alpha-keto acid dehydrogenase complex, mitochondrial K202V, P11182” as the substance, how does the abundance fitness read?
**A.** -0.105 ± 0.044

**Q.** With “Lipoamide acyltransferase component of branched-chain alpha-keto acid dehydrogenase complex, mitochondrial K202W, P11182” as the substance, how does the abundance fitness read?
**A.** -0.276 ± 0.056

**Q.** Which abundance fitness does the source give for “Lipoamide acyltransferase component of branched-chain alpha-keto acid dehydrogenase complex, mitochondrial K211A, P11182” here?
**A.** 0.066 ± 0.043

**Q.** For “Lipoamide acyltransferase component of branched-chain alpha-keto acid dehydrogenase complex, mitochondrial K211C, P11182”, which abundance fitness is on record?
**A.** -0.056 ± 0.053

**Q.** For “Lipoamide acyltransferase component of branched-chain alpha-keto acid dehydrogenase complex, mitochondrial K211D, P11182”, which abundance fitness is on record?
**A.** -0.076 ± 0.053

**Q.** With “Lipoamide acyltransferase component of branched-chain alpha-keto acid dehydrogenase complex, mitochondrial K211E, P11182” as the substance, how does the abundance fitness read?
**A.** -0.045 ± 0.039

**Q.** With “Lipoamide acyltransferase component of branched-chain alpha-keto acid dehydrogenase complex, mitochondrial K211F, P11182” as the substance, how does the abundance fitness read?
**A.** -0.232 ± 0.065

**Q.** Which abundance fitness does the source give for “Lipoamide acyltransferase component of branched-chain alpha-keto acid dehydrogenase complex, mitochondrial K211G, P11182” here?
**A.** 0.007 ± 0.037

**Q.** For “Lipoamide acyltransferase component of branched-chain alpha-keto acid dehydrogenase complex, mitochondrial K211H, P11182”, which abundance fitness is on record?
**A.** -0.041 ± 0.052

**Q.** With “Lipoamide acyltransferase component of branched-chain alpha-keto acid dehydrogenase complex, mitochondrial K211I, P11182” as the substance, how does the abundance fitness read?
**A.** -0.122 ± 0.061

**Q.** For “Lipoamide acyltransferase component of branched-chain alpha-keto acid dehydrogenase complex, mitochondrial K211L, P11182”, which abundance fitness is on record?
**A.** -0.115 ± 0.043

**Q.** Which abundance fitness does the source give for “Lipoamide acyltransferase component of branched-chain alpha-keto acid dehydrogenase complex, mitochondrial K211M, P11182” here?
**A.** -0.073 ± 0.051

**Q.** For “Lipoamide acyltransferase component of branched-chain alpha-keto acid dehydrogenase complex, mitochondrial K211N, P11182”, which abundance fitness is on record?
**A.** -0.058 ± 0.092

**Q.** For “Lipoamide acyltransferase component of branched-chain alpha-keto acid dehydrogenase complex, mitochondrial K211P, P11182”, which abundance fitness is on record?
**A.** -0.093 ± 0.048

**Q.** Which abundance fitness does the source give for “Lipoamide acyltransferase component of branched-chain alpha-keto acid dehydrogenase complex, mitochondrial K211Q, P11182” here?
**A.** -0.024 ± 0.044

**Q.** Which abundance fitness does the source give for “Lipoamide acyltransferase component of branched-chain alpha-keto acid dehydrogenase complex, mitochondrial K211R, P11182” here?
**A.** 0.043 ± 0.037

**Q.** For “Lipoamide acyltransferase component of branched-chain alpha-keto acid dehydrogenase complex, mitochondrial K211S, P11182”, which abundance fitness is on record?
**A.** -0.044 ± 0.04

**Q.** Which abundance fitness does the source give for “Lipoamide acyltransferase component of branched-chain alpha-keto acid dehydrogenase complex, mitochondrial K211T, P11182” here?
**A.** -0.041 ± 0.056

**Q.** For “Lipoamide acyltransferase component of branched-chain alpha-keto acid dehydrogenase complex, mitochondrial K211V, P11182”, which abundance fitness is on record?
**A.** -0.049 ± 0.045

**Q.** With “Lipoamide acyltransferase component of branched-chain alpha-keto acid dehydrogenase complex, mitochondrial K211W, P11182” as the substance, how does the abundance fitness read?
**A.** -0.206 ± 0.047

**Q.** With “Lipoamide acyltransferase component of branched-chain alpha-keto acid dehydrogenase complex, mitochondrial K211Y, P11182” as the substance, how does the abundance fitness read?
**A.** -0.157 ± 0.1

**Q.** Which abundance fitness does the source give for “Lipoamide acyltransferase component of branched-chain alpha-keto acid dehydrogenase complex, mitochondrial L172A, P11182” here?
**A.** -0.327 ± 0.053

**Q.** With “Lipoamide acyltransferase component of branched-chain alpha-keto acid dehydrogenase complex, mitochondrial L172C, P11182” as the substance, how does the abundance fitness read?
**A.** -0.243 ± 0.079

**Q.** With “Lipoamide acyltransferase component of branched-chain alpha-keto acid dehydrogenase complex, mitochondrial L172D, P11182” as the substance, how does the abundance fitness read?
**A.** -0.237 ± 0.076

**Q.** With “Lipoamide acyltransferase component of branched-chain alpha-keto acid dehydrogenase complex, mitochondrial L172E, P11182” as the substance, how does the abundance fitness read?
**A.** -0.107 ± 0.061

**Q.** With “Lipoamide acyltransferase component of branched-chain alpha-keto acid dehydrogenase complex, mitochondrial L172F, P11182” as the substance, how does the abundance fitness read?
**A.** -0.195 ± 0.085

**Q.** For “Lipoamide acyltransferase component of branched-chain alpha-keto acid dehydrogenase complex, mitochondrial L172G, P11182”, which abundance fitness is on record?
**A.** -0.681 ± 0.051

**Q.** With “Lipoamide acyltransferase component of branched-chain alpha-keto acid dehydrogenase complex, mitochondrial L172H, P11182” as the substance, how does the abundance fitness read?
**A.** -0.052 ± 0.091

**Q.** With “Lipoamide acyltransferase component of branched-chain alpha-keto acid dehydrogenase complex, mitochondrial L172I, P11182” as the substance, how does the abundance fitness read?
**A.** -0.047 ± 0.066

**Q.** With “Lipoamide acyltransferase component of branched-chain alpha-keto acid dehydrogenase complex, mitochondrial L172K, P11182” as the substance, how does the abundance fitness read?
**A.** -0.004 ± 0.048

**Q.** Which abundance fitness does the source give for “Lipoamide acyltransferase component of branched-chain alpha-keto acid dehydrogenase complex, mitochondrial L172M, P11182” here?
**A.** -0.063 ± 0.048

**Q.** Which abundance fitness does the source give for “Lipoamide acyltransferase component of branched-chain alpha-keto acid dehydrogenase complex, mitochondrial L172N, P11182” here?
**A.** -0.127 ± 0.07

**Q.** With “Lipoamide acyltransferase component of branched-chain alpha-keto acid dehydrogenase complex, mitochondrial L172P, P11182” as the substance, how does the abundance fitness read?
**A.** -0.226 ± 0.057

**Q.** Which abundance fitness does the source give for “Lipoamide acyltransferase component of branched-chain alpha-keto acid dehydrogenase complex, mitochondrial L172Q, P11182” here?
**A.** -0.428 ± 0.32

**Q.** Which abundance fitness does the source give for “Lipoamide acyltransferase component of branched-chain alpha-keto acid dehydrogenase complex, mitochondrial L172R, P11182” here?
**A.** -0.347 ± 0.049

From the Human Domainome abundance scans (Beltran et al. 2025)
